# Results as given in the DeepSol protein solubility set.
# Experiment: soluble on expression in E. coli; label from the status in PepcDB or PDB records
row,Sequence,soluble on expression in E. coli
1,MTMLLSIIVPTFKPQKTYFEECLFSLFNQTMFHYLYEVIVVLNGDIDTQYTDMILDIFAYKPAGLYCRLIKTDQAGVSNARNLGIDAAKGQYIGFVDDDDIVSSDYLEELCKISSRNIVGVSNVHTFRKTIEEKEDNFFACRIIQQRECQYSLFRNRAILAFPVAKLIHRDIIGNRRFNPRFKNGEDALFMTEISDLIGGFRFTKEYTTYYVRERAGSASRRPLKRGQLCWDTFMLIKAYVSIYLSSPFSYNFLLFASRIPGSIKGAIKLSRNTAFFLEHHHHHH,not soluble
2,MIAMDIREIGLRLVGEAIKAADPYRAVLNAVKVSDDKIIVQGKEFEIKGKVYVIALGKAACEMARAIEDILDVEDGVAVTKYGYGKELKRIKVIEAGHPIPDEKSILGAKEALSILNRARENDIVFILISGGGSALFELPEEGISLEDLKLTTDLLLKSGAKIHEINTVRKHISKVKGGKLAKMIKGTGIVLIISDVVGDNLEAIASGPTVKDPTTFEDAKRILELYDIWEKVPESVRLHIERGLRGEVEETLKEDLPNVHNFLIASNSISCEAIAREAQRLGFKAYIMTTTLEGEAKDAGLFIGSIVQEIAERGRPFEPPVVLVFGGETTVTIEGKGGKGGPNQEIALSATRKISDLEALIVAFDTDGTDGPTDAAGGIVDGTTYKKLREKGIDVEKVLKEHNSYEALKKVGGLLFTGPTGTNVNSIVIAIVTSKRGRT,soluble
3,MLSATLLNRTVFHSLSPLHSLAHLASDMESSVNKAPSLIAAIVLGLGISACGYFVGDGVKHLKTNNRYVNVRGLSEKEVRADTAELTIAINFKGNVPGELFPKLEEAQKKIVAELNAQGINEKEIILGQWTSKRTDSFYLKDDPTMPRYNADGSVTIKTHNVAAVEKVVAKLNELQVATDGAIAESKVAYRFNGIGALRAEMIAAATKDARNAALQFATDSGSQVGSISDASQGVFQIFASGSDEDDPTAINKTVRVVTTVTYALQD,not soluble
4,GPGSMDYNLEYSEEQREYLERVGMREYLETFVAEVVRQKPNDIYAFLHDWASAHCQKQTKMTPTEASIKIQCAQRQNLAIKEMRSRQRKVNELLEQEETERVGKVEMEG,soluble
5,MAHHHHHHMREARERARIAEAEADSAMEAADRAILEELLRKDEEERRAAAEREAAARRAAEERAAAERLKAEDEARQAAEAARQRALEEERQRQRESAKQAAKSQLHDEPSTDVATSETVQISVRCPSGKHYDRRFLRSDLVDQLTFFVLTLDEVADATDASTVRFVTGFPPAPLVWREGETRFGDVKSLCPRAVVLLRRL,not soluble
6,MGHHHHHHGGHMSLEIVKEVERLIREGKILDAFELVKQSAPEELRERIEKSFRDAEEIKKLDGIWKKLMLILHFVYASQDAVERQDKQSLVSCVVSSVNAIKLTIELGMKSITPVLMRNAARALILMDMKENAERMYTEAEKICEENRDEEMLAAIENDLATLYYDMGKYNEAKVKAEEALEIRRKIGTKEELAESLATASEIYVKLGDFDEAEECYREAEKLYRELVEEAESFKLNLAILLSNYAMFRKKLGRYQEAEKMFKEALEIFQNLERIDADFMQFVAAAYRHLGDLYREMKEYSKAEEYYKLSREKFRDIQKRWESVASEGGS,soluble
7,GSPIPHHDEKTWNVGSSNRNKAENLLRGKRDGTFLVRESSKQGCYACSVVVDGEVKHCVINKTATGYGFAEPYNLYSSLKELVLHYQHTSLVQHNDSLNVTLAYPVYAQQRR,soluble
8,MSIRRSDPLAQVSDFDIRLLRIFKSVVEAGGFSAAESALGIGRSAISQQMSDLEQRLGLRLCQRGRAGFSLTDEGREVYQSSLQLLSALESFRTEVNGLHQNLRGELNIGLTDNLVTLPHMRITHALSRLKERGPGVHINIRMIAPAEVEQGVLDGGLHVGVVPQASALPGLEYHSLYSERSLLYCAVGHPLFYAENTMLDDQRLALQEAVAPTFRLPNDIQEHYKALTCTASASDREGIAFLILTGRYIGYLPDHYANAWVQEGRLRALKPDAKFYDLNLVTVTRKGRRPHLVLEGFLEALAATR,not soluble
9,MSLAENSLKIWNWSYYIDEALLDEFAAHAGIPRENIVYDEYDDPNVVLSRLEAGKSGYDVVIIPDYILDVAIKEGLLMELNKSLIPNYPHLDEKFKSTPYDPEGRYSAVYMWGTTGFGYRSDLAEKVTTLRQIFDPDYGYLKKYSKKITMLEEPIEVILACKAFLGKSVDDWSDETMQEVKEALIRQKPYLAAYAGANVYVEGLKNGSIYVAHAYNGDIVRLQDEEGVDQASFAIPEEGGTIWTDNMCIPKDAENVELAHEFINFMLDPEVSGRNSDYIKYASPVKEARNYVSEEVLENPAVYVPEDLMKKLWFTPQLDEEARRKIENLMIEVKASTEGHHHHHH,soluble
10,MQQPEQYCRFLCLVAHEFFHLWNIKRIRPQAFEVFDYDSENYTTSLWFVEGVTSYFDQLIPLWAGLFDAPTYLKLLSDSLNRYFHTPGRFVQSLSAASFDAWIKLYRPDENSINSQMSYYLKGELVALEHHHHHH,soluble
11,MKKYLFAEQGFVEKPDFGADCWVCVETPDAEDMKFLIDTLNVPEDFLSDIADADERPRVEHDGDWHLTILRIPIESRLSGVPYVTVPMGIATRSDVTVSVCYHRAPMLADFLLHTRRKRIKVLNRTELVLRLIYSSAVWFLKYLKQINNEVTISERELERSIRNEDLIHLMMLQKTLVYFSTSIRGNEAVLGKIRASGENRIDEELVEDVRIELRQAYNTVNIYSDILSGTTEALSGVISNNLNTIMKR,not soluble
12,MAHHHHHHMRGQSSFSSIGEKPNALRDANDVTPMDTRHLHATCAAEEITHNTGANKKRQRGCRTPLMNAGDGSSIHSATSHQSSQAAHRTADAPSDISNRPTQSSGRAMELIRQRRSTVVRRITDIPALGQSHKEGERCGLINVGAVNVEAENAPSEQFSTFFSFFFFCRTHEQPMNEESCAALLVGILEVAPSTRPRHTRMLRSTLEMNRTPLEMVILGLQKIASRWETKQARPLTKEWLNQPIRSRTDWKERVVFRLVWITASRLFEIVALTPKNVTLEPNGTLILYWPVAPKTARADPHCASRFVGMRGQDAFDIIKLCMTL,not soluble
13,ARIRAPQEATVKEVHDAPAVRGSIIANMLQEHDNPFTLYPYDTNYLIYTQTSDLNKEAIASYDWAENARKDEVKFQLSLAFPLWRGILGPNSVLGASYTQKSWWQLSNSEESSPFRETNYEPQLFLGFATDYRFAGWTLRDVEMGYNHDSNGRSDPTSRSWNRLYTRLMAENGNWLVEVKPWYVVGNTDDNPDITKYMGYYQLKIGYHLGDAVLSAKGQYNWNTGYGGAELGLSYPITKHVRLYTQVYSGYGESLIDYNFNQTRVGVGVMLNDLF,soluble
14,SYIDIPPEGSETKNRHNANNPSDVLVIENKHLTKEWPSGGQMMVNNLTAKYTSDGRAVLQDLSFSVNAGQRVGLLGRTGAGKSTLLSALLRLLSTEGEIQIDGISWNSVSLQKWRKAFGVIPQKVFVFSGTFRKNLDPYEQWSDEEIWKVTEEVGLKSMIEQFPDKLNFVLVDGGYILSNGHKQLMCLARSILSKAKILLLDEPTAHLDPVTFQIIRKTLKHTFSNCTVILSEHRVEALLECQQFLVIEGCSVKQFDALQKLLTEASLFKQVFGHLDRAKLFTAHRRNSSKRKTRPKISALQ,not soluble
15,ELVMTQSPLSLPVSLGDQASISCRPSQSLVHSNGNTYLHWYLQKPGQSPKLLIYRVSNRFSGVPDRFSGSGSGTAFTLKISRVEAEDLGVYFCSQGTHVPYTFGGGTKLELKRADAAPTVSIFPPSSEQLTSGGASVVCFLNNFYPKDINVKWKIDGSERQNGVLNSWTDQDSKDSTYSMSSTLTLTKDEYERHNSYTCEATHKTSTSPIVKSFNRNEC,soluble
16,MVVVCASHIQPAIICRFTWLRFLMEIILIRHGKPTSANNPVLNAVDFTKWVRRYNFSDVSTNSRPDSILDEYKSHYIVSSDLERAIHSASIYTGQSPELTSKLYREMEIPRYKFPLRFKAMTWVYINRAFWMLGLKGSFESYRQAKIRAELASDHLVELAREQDKVILFGHGYLNLHIRRSLIKKGWKLNSKSNGFWGISSLEGLEHHHHHH,not soluble
17,MRALPICLVALMLSGCSMLSRSPVEPVQSTAPQPKAEPAKPKAPRATPVRIYTNAEELVGKPFRDLGEVSGDSCQASNQDSPPSIPTARKRMQINASKMKANAVLLHSCEVTSGTPGCYRQAVCIGSALNITAKLEHHHHHH,not soluble
18,MSLTYINKEKVIKNLSYAIYLLKKMNFTLIPEVGSNIAESLPFPKDFKDVAALTGRIIKNKLGGFYIVGDIEFGASEHIAKIILSASKFNPEIRACMNIKYDGGLIKLLKDKFAVSSFDRKEEPPNVSTMEWGTKIACEKFGGVPDIIYDRGGEGKEPMIRVLGRDAIEVVKKVEVIQKIYNTLEGHHHHHH,soluble
19,MGSDKIHHHHHHMPSRRGFLAGLLASSVTPTATWADVGAPAYLSAGKDALGLFVMAGLSAAGEVLFRHPLPDRGHAASAHPTRPEAVAFARRPGRFADVIDCRSGAQLARLEPPEGHHFYGHGVFSPEGEVLYTTENDYARGAGVIGVWNAGDYHRIGQFSSGGIGPHEMLLRRDAPGLVVANGGIETHPESGRAKLNIPFMRPNLSYLRLSGEIQHQMELPADLHKNSIRHIAVRSDGAVGFAMQWQGDLGADVPIVGLHQPGSAPRLMAEDDPRLRNLNGYGGSIAFSGDETAIAVTSPRGGVVQVMDCTSGALQAEHALSDVCGLAPLKDGFLVSTGTGIMAQIGTEVTTLTQAPLAWDNHLIALSSAASAPRQP,not soluble
20,MAKKVLIISSSPRKGGNSDMLCDEFMKGVLETGNEVEKIFLKEKVIHPCTGCSVCSMYGKPCPQKDDAAGIVEKMIAADVIVMATPVYFYTMCGQMKIMIDRCCARYTEITNKEFYFIIAAAENDKGMMERTIDGFRGFLDCLENPQEKGVIYGIGAWKVGEIKDTPYMQEAYEMGKMV,not soluble
21,MLWTDCLTRLRQELSDNVFAMWIRPLVAEETTDSLRLYAPNPYWTRYIQEHHLELISILVEQLSEGRIRQVEILVDSRPGAILSPAEQPATTTAALSSTPVVPQRVKKEVVEPAATQSNKILNSKKRLLNPLFTFSLFVEGRSNQMAAETCRKVLTQLGASQHNPLFLYGPTGLGKTHLMQAVGNALLQAKPNARVMYMTAESFVQDFVSSLQKGKVEEFKKNCRSLDLLLVDDIHLLAGKEASLVEFFYTFNALLDESKQIILTSDRYPKELTELDPRLVSRFSWGLSVGVEPPDIETRIEILLKKAENSGVDLPRNCALFIAQQVVANVRELEGALNKVVAIARFKGSQIDLDVVRESLKDVLAIRARTISVENIQRVVSEYFRIPLKELIGPKRTRIYARPRQLAMGLARELTGDSFPEIGMAFGGRDHSTVMHACEKVQSLKQEDPIFNEDYKNLLRLLQSLEHHHHHH,not soluble
22,MLAGHTLIESKNDHQSRRNCEFRRAIAAAGRCRRVYGGALPLLASSVPMSVRMDTRHRQKQALAQTAATMIEPGEFIFLDSGSTNLALIDFLPKGYDLTLATNSIDIAGAALRGQDLKLIMLGGTVDLAVGGCVDATAIGSLAQMNIDRSFIGVCSVSPTFGLSAFDIADATFKRALVAASGYTIALATTDKLEVRAPHRVSEINEIDCLVLEHDAPISHLDDLVRAGASIVKALQPFAAALEHHHHHH,not soluble
23,MRNVDFSPLYRNAIGFDRLLNLMEANTAKNTSGGYPPYNIEQKDEHNYRITMAVAGFSEDQLDLTQNENMLIVKGERKAEEGKNYVYQGIAERDFERKFQLADYVKVTGASMENGLLHIDLVREIPEAMQPRKIAIGGNNLLESN,not soluble
